Results reported in US20040161756A1, “Substrate linked directed evolution (slide)” (priority 2000, published 2004).

Columns and labels:
loxP sites = assay: Recombination of pEVO-loxP^2 excision substrate in E. coli; format: cell-based; conditions: expressed from the arabinose promoter, even at very low expression levels
Text: (§1) Evolution vectors: The pEVO vector series is based on the plasmid pBAD-33 (Guzman et al., J Bacteriol 177, 4121-30 (1995)). pEVO-loxP^2, pEVO-3, pEVO-6 and pEVO-10 are identical except for the recognition target sites for the recombinase (see also FIG. 3). pEVO-loxP^2 contains two tandemly repeated loxP sites as they exist in the bacteriophage P1, spaced by 690 bp. pEVO-3, contains two recognition target sites which differ in 3 nucleotides per halfsite from a loxP site. The spacer in pEVO-3 is identical to the one found in loxP sites from bacteriophage P1. pEVO-6 recognition target sites (loxH) have the spacer sequence altered in all eight positions in addition to the three nucleotides changes present in pEVO-3. pEVO-10 contains two loxH sites as well as two loxP sites, which are intertwined. Recombinase expression levels can be titrated by the amount of L-arabinose added to the medium.
(§2) To test the method of the invention, Cre recombinase was first cloned into the vector pEVO-loxP^2, which contains two loxP sites, oriented as an excision substrate. […] As a first step, the three nucleotides different in the loxH halfsites were introduced (pEVO-3). […] Libraries of mutated recombinase were cloned into pEVO3 and screened at low recombinase expression levels.

[1] = system: recognition target sites which differ in 3 nucleotides per halfsite from a loxP site; assay: Recombination of pEVO-3 in E. coli; format: cell-based
Text: as §1, §2

pSVpaH (loxH sites) = assay: Recombination reporter assay in CHO cells, pSVpaH; format: cell-based, chinese hamster; conditions: co-transfection
Text: (§3) a) Plasmids expressing the depicted recombinases from the PGK promoter were co-transfected with the recombination reporter plasmids pSVpaX (loxP sites) or pSVpaH (loxH sites) into CHO cells. Illustrations of plasmids pSVpaX, pSVpaH, and pSVpaZ is presented. White triangles depict loxH sites, grey triangles loxP sites, and black triangles FRT sites. SV40═SV40 early promoter; pac=puromycin acetytransferase.
(§4) Cell culture: Chinese hamster ovary (CHO) cells were transfected with plasmid DNA using Lipofectamine (GibcoBRL). Crude cell extracts were prepared after 36 hours and Luciferase activity of cell extracts were determined with the Luciferase assay system from Promega. Relative β-galactosidase activities were measured with the Galacto-Light kit from Tropix. The Cre recombination reporter plasmid pSVpaX has been described earlier (Buchholz et al., Nucleic Acids Res 24, 4256-62 (1996)). pSVpaH is identical to pSVpaX except that the loxP sites were exchanged with loxH sites. […] Recombination efficiencies were calculated from measured β-galactosidase activities, corrected by transformation efficiencies assayed by Luciferase measurements.
(§5) The recombination properties of Fre1 and Fre3 were evaluated in mammalian cells, by co-transfecting chinese hamster ovary (CHO) cells with reporter and recombinase expression plasmids (FIG. 6a). […]

pSVpaX (loxP sites) = assay: Recombination reporter assay in CHO cells, pSVpaX; format: cell-based, chinese hamster; conditions: co-transfection, within 36 hours, from β-galactosidase activities
Text: as §3, §4, §5

loxH sites = assay: Recombination of loxH sites in E. coli (initial experiments and pEVO-6 vector, plasmid gel); format: cell-based
Text: as §1

B1: Cre: site specific recombinase that recognises the 34 bp loxP sequence; wild type starting protein (protein, UniProt P06956 1-343, looked up)
Recombinase cre: MSNLLTVHQNLPALPVDATSDEVRKNLMDMFRDRQAFSEHTWKMLLSVCRSWAAWCKLNNRKWFPAEPEDVRDYLLYLQARGLAVKTIQQHLGQLNMLHRRSGLPRPSDSNAVSLVMRRIRKENVDAGERAKQALAFERTDFDQVRSLMENSDRCQDIRNLAFLGIAYNTLLRIAEIARIRVKDISRTDGGRMLIHIGRTKTLVSTAGVEKALSLGVTKLVERWISVSGVADDPNNYLFCRVRKNGVAAPSATSQLSTRALEGIFEATHRLIYGAKDDSGQRYLAWSGHSARVGAARDMARAGVSIPEIMQAGGWTNVNIVMNYIRNLDSETGAMVRLLEDGD
- recombination of plasmid pEVO-loxP^2 (loxP sites): efficiently recombined
- recombination of pEVO-3 ([1]; higher expression levels): recombination was observed
- recombination of pEVO-3 ([1]; low expression levels): did not recombine
- recombination of pSVpaH (pSVpaH (loxH sites)): little recombination
- reporter pSVpaX recombined (pSVpaX (loxP sites)): approximately 75%
- recombination of pEVO-6 (loxH sites) (loxH sites; even when induced with arabinose): no recombination
- recombination of loxH sites (loxH sites; initial recombination experiments in E. coli): does not recombine this site at measurable frequency
